Experiments:
[1] = molecular target: murine mAbGA733; assay: competition ELISA, free GA733 against coated GA733
[2] = molecular target: murine mAbGA733; assay: competition ELISA: free GA733 (1-100 nM) varied, constant murine mAbGA733 (0.063 nM), plates coated with GA733
[3] = molecular target: plant produced CO17-1A of Example 9; assay: competition ELISA: free GA733 (1-100 nM) varied, constant plant CO17 (1/500 dilution; protein A purified and ammonium sulfate fractionated preparations alike), plates coated with GA733
[4] = molecular target: colorectal cancer-associated antigen (Ag) GA733-2 (UniProt P16422); assay: ELISA, leaf extract on plates coated with Ag GA733-2, anti-mouse IgG peroxidase (whole molecule)
[5] = molecular target: colorectal cancer-associated antigen (Ag) GA733-2 (UniProt P16422); assay: ELISA, N. benthamiana leaf extract on plates coated with Ag GA733-2, anti-mouse IgG peroxidase (whole molecule or Fc specific)

With “colorectal cancer-associated antigen (Ag) GA733-2 (from UniProt P16422 24-265)” as the molecule, how does the fold higher antigen concentration for 50% inhibition, against plant expressed CO17-1A [1] read?
Its fold higher antigen concentration for 50% inhibition, against plant expressed CO17-1A is 5 fold.

And the IC50 [2]?
Its IC50 is 35 nM.

And the IC50 [3]?
The IC50 was 6.3 nM.

B1: plant-produced rAB CO17-1A expressed from AlMV vectors A3a17-1ALC and A3b17-1AHC in Rep plants (antibody, INN chains, looked up, V domains shown)
VH: QVQLQQSGAELVRPGTSVKVSCKASGYAFTNYLIEWVKQRPGQGLEWIGVINPGSGGTNYNEKFKGKATLTADKSSSTAYMQLSSLTSDDSAVYFCARDGPWFAYWGQGTLVTVSA
VL: NIVMTQSPKSMSMSVGERVTLTCKASENVVTYVSWYQQKPEQSPKLLIYGASNRYTGVPDRFTGSGSATDFTLTISSVQAEDLADYHCGQGYSYPYTFGGGTKLEIK
modifications: plant-produced
With B1 as the molecule, how does the fold OD490 nm over controls (NI, HC, LC) [4] read?
The fold OD490 nm over controls (NI, HC, LC) was 2 to 3 fold.

B2: plant-produced rAb CO17-1A expressed from TMV vectors 30B-17HCK and 30B-17LC in Nicotiana benthamiana (antibody, INN chains, looked up, V domains shown, part only)
VH: QVQLQQSGAELVRPGTSVKVSCKASGYAFTNYLIEWVKQRPGQGLEWIGVINPGSGGTNYNEKFKGKATLTADKSSSTAYMQLSSLTSDDSAVYFCARDGPWFAYWGQGTLVTVSA
VL: NIVMTQSPKSMSMSVGERVTLTCKASENVVTYVSWYQQKPEQSPKLLIYGASNRYTGVPDRFTGSGSATDFTLTISSVQAEDLADYHCGQGYSYPYTFGGGTKLEIK
modifications: plant-produced, His tag
Which fold O.D.490 over controls (NI, HC, LC) [5] does the source give for B2 here?
Its fold O.D.490 over controls (NI, HC, LC) is 2 to 3 fold.

Reference: patent US20050229275A1
